The results in this text go back to patent publication US20170037111A1, “Novel peptides and combination of peptides for use in immunotherapy against ovarian cancer and other cancers” (immatics biotechnologies GmbH, priority 2015, published 2017).

In this assay the target is HLA-A*02:01 (Homo sapiens, UniProt P04439, D140Y/D185E/D98H/E176V/E277Q/G131W/G231S/I119V/I121R/I166T/I218V/L300P/L318F/N151K/N90K/P208A/P217A/Q86G/Q94H/R138H/R169H/T345S). The assay can be described thus: MHC binding assay (UV-ligand exchange, β2m ELISA, peptide exchange yield). The note with it: MHC class I binding score; binding to HLA-A*02:01 ranged by peptide exchange yield (UV-ligand exchange, β2m ELISA). The source says:
Candidate peptides for T cell based therapies according to the present invention were further tested for their MHC binding capacity (affinity). The individual peptide-MHC complexes were produced by UV-ligand exchange, where a UV-sensitive peptide is cleaved upon UV-irradiation, and exchanged with the peptide of interest as analyzed. Only peptide candidates that can effectively bind and stabilize the peptide-receptive MHC molecules prevent dissociation of the MHC complexes. To determine the yield of the exchange reaction, an ELISA was performed based on the detection of the light chain (β2m) of stabilized MHC complexes. The assay was performed as generally described in Rodenko et al. (Rodenko et al., 2006).
96 well MAXISorp plates (NUNC) were coated over night with 2 ug/ml streptavidin in PBS at room temperature, washed 4× and blocked for 1h at 37° C. in 2% BSA containing blocking buffer. […] Peptide-MHC monomers of the UV-exchange reaction were diluted 100 fold in blocking buffer. Samples were incubated for 1h at 37° C., washed four times, incubated with 2 ug/ml HRP conjugated anti-β2m for 1h at 37° C., washed again and detected with TMB solution that is stopped with […]. Absorption was measured at 450 nm. Candidate peptides that show a high exchange yield (preferably higher than 50%, most preferred higher than 75%) are generally preferred for a generation and production of antibodies or fragments thereof, and/or T cell receptors or fragments thereof, as they show sufficient avidity to the MHC molecules and prevent dissociation of the MHC complexes.
On to “1 (SLMEPPAVLLL; listed as Homo sapiens) [compound 1]”, for which the Peptide exchange entry is “″+++″ (≧50% = +++)”.
With “4 (GIMEHITKI; listed as Homo sapiens) [compound 4]” the entry was “″++++″ (≧75% = ++++)”; with “6 (VLVSDGVHSV; listed as Homo sapiens) [compound 6]”, “″+++″ (≧50% = +++)”.
Turning to “9 (GAAKDLPGV; listed as Homo sapiens) [compound 9]”, the Peptide exchange entry was “″++″ (≧20% = ++)”.
Under “10 (FLATFPLAAV; listed as Homo sapiens) [compound 10]” stands “″++++″ (≧75% = ++++)”; under “12 (SLWPDPMEV; listed as Homo sapiens) [compound 12]”, “″+++″ (≧50% = +++)”; under “13 (YLMDESLNL; listed as Homo sapiens) [compound 13]”, “″+++″ (≧50% = +++)”.
Under “14 (AAYGGLNEKSFV; listed as Homo sapiens) [compound 14]” stands “″+++″ (≧50% = +++)”; under “15 (VLLTFKIFL; listed as Homo sapiens) [compound 15]”, “″++″ (≧20% = ++)”.
Under “16 (VLFQGQASL; listed as Homo sapiens) [compound 16]” stands “″+++″ (≧50% = +++)”.
For “18 (YLVAKLVEV; listed as Homo sapiens) [compound 18]”, the Peptide exchange entry is “″++″ (≧20% = ++)”.
Under “20 (RMIEYFIDV; listed as Homo sapiens) [compound 20]” stands “″+++″ (≧50% = +++)”.
With “21 (VLDELDMEL; listed as Homo sapiens) [compound 21]” the entry was “″++″ (≧20% = ++)”.
With “22 (IMEENPGIFAV; listed as Homo sapiens) [compound 22]” the entry was “″+++″ (≧50% = +++)”; with “23 (VLLDDIFAQL; listed as Homo sapiens) [compound 23]”, “″+++″ (≧50% = +++)”.
For “24 (SLSDGLEEV; listed as Homo sapiens) [compound 24]”, the Peptide exchange result was “″++″ (≧20% = ++)”.
With “25 (FLPDEPYIKV; listed as Homo sapiens) [compound 25]” the entry was “″+++″ (≧50% = +++)”; with “26 (ALLELAEEL; listed as Homo sapiens) [compound 26]”, “″+++″ (≧50% = +++)”.
With “27 (ILADIVISA; listed as Homo sapiens) [compound 27]” the entry was “″+++″ (≧50% = +++)”.
For the substance “28 (QLLDETSAITL; listed as Homo sapiens) [compound 28]”, the Peptide exchange result is “″+++″ (≧50% = +++)”.
Take “29 (KMLGIPISNILMV; listed as Homo sapiens) [compound 29]”: the Peptide exchange entry is on record as “″+++″ (≧50% = +++)”.
With “30 (LILDWVPYI; listed as Homo sapiens) [compound 30]” the entry was “″+++″ (≧50% = +++)”.
With “31 (YLAPELFVNV; listed as Homo sapiens) [compound 31]” the entry was “″++″ (≧20% = ++)”; with “32 (KLDDLTQDLTV; listed as Homo sapiens) [compound 32]”, “″++″ (≧20% = ++)”; with “33 (VLLSLLEKV; listed as Homo sapiens) [compound 33]”, “″++″ (≧20% = ++)”.
With “34 (ILVEADSLWVV; listed as Homo sapiens) [compound 34]”, the Peptide exchange entry is listed as “″+++″ (≧50% = +++)”.
Consider “35 (KINDTIYEV; listed as Homo sapiens) [compound 35]”, for which the Peptide exchange result is reported as “″+++″ (≧50% = +++)”.
Take “39 (SVAPNLPAV; listed as Homo sapiens) [compound 39]”: the Peptide exchange result is “″+++″ (≧50% = +++)”.
Under “41 (SLMPHIPGL; listed as Homo sapiens) [compound 41]” stands “″+++″ (≧50% = +++)”; under “42 (VLLQKIVSA; listed as Homo sapiens) [compound 42]”, “″+++″ (≧50% = +++)”; under “43 (VLSSLEINI; listed as Homo sapiens) [compound 43]”, “″++″ (≧20% = ++)”.
With “44 (ILDPISSGFLL; listed as Homo sapiens) [compound 44]” the entry was “″++″ (≧20% = ++)”; with “45 (SLWQDIPDV; listed as Homo sapiens) [compound 45]”, “″+++″ (≧50% = +++)”; with “46 (ILTEENIHL; listed as Homo sapiens) [compound 46]”, “″+++″ (≧50% = +++)”.
As for “47 (ILLSVPLLVV; listed as Homo sapiens) [compound 47]”, the Peptide exchange entry is reported as “″++″ (≧20% = ++)”.
Under “50 (SLSELEALM; listed as Homo sapiens) [compound 50]” stands “″+++″ (≧50% = +++)”.
Under “51 (LLPDLEFYV; listed as Homo sapiens) [compound 51]” stands “″++++″ (≧75% = ++++)”; under “52 (FLLAHGLGFLL; listed as Homo sapiens) [compound 52]”, “″++++″ (≧75% = ++++)”; under “53 (KMIETDILQKV; listed as Homo sapiens) [compound 53]”, “″++++″ (≧75% = ++++)”.
On to “54 (SLLEQGKEPWMV; listed as Homo sapiens) [compound 54]”, for which the Peptide exchange result was “″+++″ (≧50% = +++)”.
With “55 (SLLDLETLSL; listed as Homo sapiens) [compound 55]” the entry was “″++++″ (≧75% = ++++)”; with “57 (TLAELQPPVQL; listed as Homo sapiens) [compound 57]”, “″+++″ (≧50% = +++)”.
Take “59 (IMEDIILTL; listed as Homo sapiens) [compound 59]”: the Peptide exchange entry is listed as “″+++″ (≧50% = +++)”.
As to “62 (VLLDVSAGQLLM; listed as Homo sapiens) [compound 62]”, the Peptide exchange result was “″++++″ (≧75% = ++++)”.
With “63 (YLLPSGGSVTL; listed as Homo sapiens) [compound 63]” the entry was “″++″ (≧20% = ++)”; with “64 (YAAPGGLIGV; listed as Homo sapiens) [compound 64]”, “″++″ (≧20% = ++)”.
Turning to “66 (FLDENIGGVAV; listed as Homo sapiens) [compound 66]”, the Peptide exchange entry was “″+++″ (≧50% = +++)”.
With “67 (TLLAEALVTV; listed as Homo sapiens) [compound 67]” the entry was “″+++″ (≧50% = +++)”; with “68 (SLMELPRGLFL; listed as Homo sapiens) [compound 68]”, “″++++″ (≧75% = ++++)”.
With “69 (FQLDPSSGVLVTV; listed as Homo sapiens) [compound 69]” the entry was “″+++″ (≧50% = +++)”; with “70 (GLLDYPVGV; listed as Homo sapiens) [compound 70]”, “″+++″ (≧50% = +++)”; with “71 (GILARIASV; listed as Homo sapiens) [compound 71]”, “″+++″ (≧50% = +++)”.
With “72 (SLLELDGINL; listed as Homo sapiens) [compound 72]”, the Peptide exchange entry is listed as “″+++″ (≧50% = +++)”.
Turning to “73 (NIFDLQIYV; listed as Homo sapiens) [compound 73]”, the Peptide exchange result is on record as “″+++″ (≧50% = +++)”.
Under “74 (ALLDPEVLSIFV; listed as Homo sapiens) [compound 74]” stands “″+++″ (≧50% = +++)”; under “75 (GLLEVMVNL; listed as Homo sapiens) [compound 75]”, “″+++″ (≧50% = +++)”.
Under “76 (ILIDSIYKV; listed as Homo sapiens) [compound 76]” stands “″+++″ (≧50% = +++)”; under “77 (ILVEADGAWVV; listed as Homo sapiens) [compound 77]”, “″++++″ (≧75% = ++++)”; under “78 (SLFSSLEPQIQPV; listed as Homo sapiens) [compound 78]”, “″+++″ (≧50% = +++)”.
For the substance “80 (FLYDNLVESL; listed as Homo sapiens) [compound 80]”, the Peptide exchange entry is “″++″ (≧20% = ++)”.
Under “81 (FLFSQLQYL; listed as Homo sapiens) [compound 81]” stands “″++″ (≧20% = ++)”; under “82 (FLSSVTYNL; listed as Homo sapiens) [compound 82]”, “″+++″ (≧50% = +++)”; under “83 (ILAPTVMMI; listed as Homo sapiens) [compound 83]”, “″+++″ (≧50% = +++)”.
With “84 (VTFGEKLLGV; listed as Homo sapiens) [compound 84]” the entry was “″++″ (≧20% = ++)”; with “85 (KMSELRVTL; listed as Homo sapiens) [compound 85]”, “″+++″ (≧50% = +++)”.
Under “86 (NLIGKIENV; listed as Homo sapiens) [compound 86]” stands “″+++″ (≧50% = +++)”.
